Reference: IntAct's records for PubMed 16642037

B1: RAC-alpha serine/threonine-protein kinase (Rattus norvegicus (Rat)), P47196 (parent)
chain: MNDVAIVKEGWLHKRGEYIKTWRPRYFLLKNDGTFIGYKERPQDVEQRESPLNNFSVAQCQLMKTERPRPNTFIIRCLQWTTVIERTFHVETPEEREEWTTAIQTVADGLKRQEEETMDFRSGSPSDNSGAEEMEVALAKPKHRVTMNEFEYLKLLGKGTFGKVILVKEKATGRYYAMKILKKEVIVAKDEVAHTLTENRVLQNSRHPFLTALKYSFQTHDRLCFVMEYANGGELFFHLSRERVFSEDRARFYGAEIVSALDYLHSEKNVVYRDLKLENLMLDKDGHIKITDFGLCKEGIKDGATMKTFCGTPEYLAPEVLEDNDYGRAVDWWGLGVVMYEMMCGRLPFYNQDHEKLFELILMEEIRFPRTLGPEAKSLLSGLLKKDPTQRLGGGSEDAKEIMQHRFFANIVWQDVYEKKLSPPFKPQVTSETDTRYFDEEFTAQMITITPPDQDDSMECVDSERRPHFPQFSYSASGTA

Variants of: B1
Details: with nfkb1_rat Nfkb1, Q63369
nfkb1_rat Nfkb1, Q63369, sequence (Q63369 whole entry): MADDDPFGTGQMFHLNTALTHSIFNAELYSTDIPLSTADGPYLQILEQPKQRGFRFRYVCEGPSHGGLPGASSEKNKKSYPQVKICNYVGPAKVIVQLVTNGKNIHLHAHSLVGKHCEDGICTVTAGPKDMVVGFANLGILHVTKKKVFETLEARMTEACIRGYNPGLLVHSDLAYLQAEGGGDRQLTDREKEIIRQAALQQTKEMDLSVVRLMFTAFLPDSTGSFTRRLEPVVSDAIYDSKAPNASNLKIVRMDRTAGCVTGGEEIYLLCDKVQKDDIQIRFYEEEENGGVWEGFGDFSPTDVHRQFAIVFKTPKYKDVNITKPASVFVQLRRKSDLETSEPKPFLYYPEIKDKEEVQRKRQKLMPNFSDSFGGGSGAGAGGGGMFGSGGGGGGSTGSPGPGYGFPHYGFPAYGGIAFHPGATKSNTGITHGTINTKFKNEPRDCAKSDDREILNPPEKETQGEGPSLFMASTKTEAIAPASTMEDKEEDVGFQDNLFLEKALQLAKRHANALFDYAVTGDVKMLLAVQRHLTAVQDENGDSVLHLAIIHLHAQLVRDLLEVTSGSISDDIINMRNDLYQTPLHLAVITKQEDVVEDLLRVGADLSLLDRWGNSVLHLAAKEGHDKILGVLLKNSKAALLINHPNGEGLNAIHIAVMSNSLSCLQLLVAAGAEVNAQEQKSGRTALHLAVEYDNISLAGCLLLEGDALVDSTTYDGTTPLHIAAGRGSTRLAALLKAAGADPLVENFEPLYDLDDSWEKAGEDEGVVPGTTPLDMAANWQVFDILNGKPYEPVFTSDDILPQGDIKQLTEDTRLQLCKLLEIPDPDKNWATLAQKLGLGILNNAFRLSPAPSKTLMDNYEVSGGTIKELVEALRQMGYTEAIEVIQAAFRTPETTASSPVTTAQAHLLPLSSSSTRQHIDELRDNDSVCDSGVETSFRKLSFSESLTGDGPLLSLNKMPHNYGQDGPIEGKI

Effect of a mutation on the interaction, increasing interaction:
MNDVAIVKEGWLHKRGEYIKTWRPRYFLLKNDGTFIGYKERPQDVEQRESPLNNFSVAQCQLMKTERPRPNTFIIRCLQWTTVIERTFHVETPEEREEWTTAIQTVADGLKRQEEETMDFRSGSPSDNSGAEEMEVALAKPKHRVTMNEFEYLKLLGKGTFGKVILVKEKATGRYYAMKILKKEVIVAKDEVAHTLTENRVLQNSRHPFLTALKYSFQTHDRLCFVMEYANGGELFFHLSRERVFSEDRARFYGAEIVSALDYLHSEKNVVYRDLKLENLMLDKDGHIKITDFGLCKEGIKDGATMKDFCGTPEYLAPEVLEDNDYGRAVDWWGLGVVMYEMMCGRLPFYNQDHEKLFELILMEEIRFPRTLGPEAKSLLSGLLKKDPTQRLGGGSEDAKEIMQHRFFANIVWQDVYEKKLSPPFKPQVTSETDTRYFDEEFTAQMITITPPDQDDSMECVDSERRPHFPQFSYSASGTA [T308D]
MNDVAIVKEGWLHKRGEYIKTWRPRYFLLKNDGTFIGYKERPQDVEQRESPLNNFSVAQCQLMKTERPRPNTFIIRCLQWTTVIERTFHVETPEEREEWTTAIQTVADGLKRQEEETMDFRSGSPSDNSGAEEMEVALAKPKHRVTMNEFEYLKLLGKGTFGKVILVKEKATGRYYAMKILKKEVIVAKDEVAHTLTENRVLQNSRHPFLTALKYSFQTHDRLCFVMEYANGGELFFHLSRERVFSEDRARFYGAEIVSALDYLHSEKNVVYRDLKLENLMLDKDGHIKITDFGLCKEGIKDGATMKTFCGTPEYLAPEVLEDNDYGRAVDWWGLGVVMYEMMCGRLPFYNQDHEKLFELILMEEIRFPRTLGPEAKSLLSGLLKKDPTQRLGGGSEDAKEIMQHRFFANIVWQDVYEKKLSPPFKPQVTSETDTRYFDEEFTAQMITITPPDQDDSMECVDSERRPHFPQFDYSASGTA [S473D]
MNDVAIVKEGWLHKRGEYIKTWRPRYFLLKNDGTFIGYKERPQDVEQRESPLNNFSVAQCQLMKTERPRPNTFIIRCLQWTTVIERTFHVETPEEREEWTTAIQTVADGLKRQEEETMDFRSGSPSDNSGAEEMEVALAKPKHRVTMNEFEYLKLLGKGTFGKVILVKEKATGRYYAMAILKKEVIVAKDEVAHTLTENRVLQNSRHPFLTALKYSFQTHDRLCFVMEYANGGELFFHLSRERVFSEDRARFYGAEIVSALDYLHSEKNVVYRDLKLENLMLDKDGHIKITDFGLCKEGIKDGATMKTFCGTPEYLAPEVLEDNDYGRAVDWWGLGVVMYEMMCGRLPFYNQDHEKLFELILMEEIRFPRTLGPEAKSLLSGLLKKDPTQRLGGGSEDAKEIMQHRFFANIVWQDVYEKKLSPPFKPQVTSETDTRYFDEEFTAQMITITPPDQDDSMECVDSERRPHFPQFSYSASGTA [K179A]
